Here are results for one molecule from patent US7250269B2, “Composition for assaying glycoprotein” (Asahi Kasei Pharma Corporation, priority 2001, dated 2007).

Series [1] can be described thus: FOD enzyme activity / substrate specificity on glycated valine. It counts as biochemical. As for the experimental part: (§1) 164 strains of mutant colonies obtained in Example 15 were cultured for 16 hours at 30° C. in 1.5 ml of a 3.7% BHI liquid medium (manufactured by DIFCO Co.) containing 50 μg/ml of ampicillin and 1 mM of IPTG. 1 ml of the culture broth was centrifuged (15,000 G for one minute at 4° C.) to collect cells. 200 μl of 10 mM Tris-HCl buffer solution (pH 8.0) was added to the collected cells. After crushing the cells using an ultrasonic breaker, the mixture was centrifuged (14,000 G for five minutes at 4° C.) to obtain a cell extract as a supernatant.
(§2) The glycated amino acid substrate specificity of FOD-mutated recombinant contained in the cell extract prepared in Example 16 was measured using the above-mentioned FOD enzyme activity measuring method.
(§3) Synthesis of an oligonucleotide having the base sequence of 1-27 in the sequence table Sequence ID No. 7 was consigned to an outside source (BEX Co., Ltd.). The oligonucleotide was subjected to the site-directed mutagenesis using the Mutan-K kit (manufactured by Takara Shuzo Co., Ltd.) according to the manual attached to the kit. The mutant gene obtained was incorporated again into the expression plasmid pTV119N, introduced into Escherichia coli host, and cultured at 30° C. for 16 hours in a 3.7% BHI liquid medium containing 50 μg/ml of ampicillin and 1 mM of IPTG to produce mutant FOD protein.

Series [2] can be described thus: FOD enzyme activity / substrate specificity on glycated lysine. The class given is biochemical. As for the experimental part: as §1, §2, §3
Series [3] can be described thus: Isoelectric point by focusing electrophoresis. It counts as physicochemical. The following applies: 700 V for 40 hours at 4° C.; carrier ampholyte. As for the experimental part:
The isoelectric point determined by fractionating the enzyme after applying a constant voltage of 700 V for 40 hours at 4° C. in a focusing electrophoresis using carrier ampholyte, followed by measuring the enzyme activity of each fraction, was pH 4.3±0.2.

B1: Reactive 327th amino acid Tryptophan: mutant obtained by replacing the lysine with tryptophan, named FOD-W; plasmid pcmFOD3; Sequence ID No. 2 (protein)
chain: ASTLTKQSQILIVGGGTWGCSTALHLARRGYTNVTVLDVNRIPSPISAGHDVNKLAGRLSTADSKGDDEDSIWKALSYAAAQGWLHDPVFQPFCHNTGSVVAGSTPKSIKQLVEDEIGDDIDQYTPLNTAEDFRKTMPEGILTGNFPGWKGFYKPTGSGWVHARKAMKAAFEESERLGVKFITGSPEGKVESLIFEDGDVRGAKTADGKEHRADRTILSAGASAEFFLDFENQIQPTAWTLGHIQMTPEETKLYKNLPPLFNINQGFFMEPDEDLHQLKMCDEHPGYCNWVEKPGSKYPQSIPFAKHQVPTEAERRMKQFLKDIMPQLADRPLVHARICWCADTQDRMFLITYHPRHPSLVIASGDCGTGYWHITSIGKFISDCMEGTLEERFAKFWRWRPEKFTEFWGKDPLDRFGADDKIMDLPKSDVEGWTNIKNDI
modifications: sequence derived from Fusarium oxysporum IFO- 9722
For the molecule B1, in series [1], the “Substrate specificity FV” value stood at 0%. Moreover, the “Optimum temperature (maximum activity)” value (40 mM Tris-HCl buffer solution (pH 7.5)) was 50 °C. The “Optimum pH (maximum activity)” value (100 mM buffers pH 4.4-10.3) was found to be 7.5. Also, the “Substrate specificity ZFL” value in series [2] worked out at 100%. For the same molecule, the “Reactivity ratio, glycated lysine / glycated valine” value in series [2] (glycated lysine / glycated valine) was found to be 2980. Besides, in series [3], the Isoelectric point is recorded as 4.3±0.2.
